For 13 molecules, Kd results are on record in publication PMC8163975 (The Journal of Biological Chemistry, 2021).

T1: RAP2A, mGppNHp-bound (human, UniProt P10114 1-183)
T1 construct: human RAP2A; Loaded with mGppNHp
T1 sequence (looked up): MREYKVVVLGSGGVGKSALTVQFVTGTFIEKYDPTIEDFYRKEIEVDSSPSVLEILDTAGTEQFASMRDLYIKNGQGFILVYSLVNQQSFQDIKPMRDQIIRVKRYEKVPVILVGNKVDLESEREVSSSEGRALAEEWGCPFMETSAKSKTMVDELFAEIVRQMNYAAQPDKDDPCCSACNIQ

T2: RALA, mGppNHp-bound (human, UniProt P11233 1-206)
T2 construct: human RALA; Loaded with mGppNHp
T2 sequence (looked up): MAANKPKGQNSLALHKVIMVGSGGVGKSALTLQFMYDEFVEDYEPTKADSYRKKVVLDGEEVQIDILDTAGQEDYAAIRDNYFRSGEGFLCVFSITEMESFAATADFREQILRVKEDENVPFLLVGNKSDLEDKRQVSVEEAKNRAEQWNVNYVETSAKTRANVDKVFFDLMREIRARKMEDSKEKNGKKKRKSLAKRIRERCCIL

T3: RRAS1, mGppNHp-bound (human, UniProt P10301 1-218)
T3 construct: human RRAS (RRAS1); Loaded with mGppNHp
T3 sequence (looked up): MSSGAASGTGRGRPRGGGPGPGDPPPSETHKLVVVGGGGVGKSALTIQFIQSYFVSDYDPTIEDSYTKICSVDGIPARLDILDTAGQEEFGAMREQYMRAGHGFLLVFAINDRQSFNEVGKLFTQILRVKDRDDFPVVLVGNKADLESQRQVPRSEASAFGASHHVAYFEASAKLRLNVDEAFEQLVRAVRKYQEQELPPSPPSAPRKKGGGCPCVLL

B1: RASSF7 RA domain, His-tagged MBP fusion (domain or fragment, human, UniProt Q02833 6-89, looked up)
chain: AAMELKVWVDGIQRVVCGVSEQTTCQEVVIALAQAIGQTGRFVLVQRLREKERQLLPQECPVGAQATCGQFASDVQFVLRRTGP
notes: RASSF7 RAS association (RA) domain, aa 6–89 of Q02833; Cloned into pMal-c5X-His; Used in fluorescence polarisation and, coupled to Ni-NTA beads, in the pull-down; source: E. coli, purified (Ni-NTA)
B2: RASSF9 RA domain, His-tagged MBP fusion (domain or fragment, human, UniProt O75901 25-119, looked up)
chain: EEKEIVVWVCQEEKLVCGLTKRTTSADVIQALLEEHEATFGEKRFLLGKPSDYCIIEKWRGSERVLPPLTRILKLWKAWGDEQPNMQFVLVKADA
notes: RASSF9 RAS association (RA) domain, aa 25–119 of O75901; Cloned into pMal-c5X-His; Used in fluorescence polarisation and, coupled to Ni-NTA beads, in the pull-down; source: E. coli, purified (Ni-NTA)
B3: RASSF8 RA domain, MBP fusion protein (domain or fragment, human, UniProt Q8NHQ8 1-82, looked up)
chain: MELKVWVDGVQRIVCGVTEVTTCQEVVIALAQAIGRTGRYTLIEKWRDTERHLAPHENPIISLNKWGQYASDVQLILRRTGP
notes: RASSF8 RA domain, aa 1-82 of Q8NHQ8
B4: RASSF1 RA domain, MBP fusion protein (domain or fragment, human, UniProt Q9NS23 194-288, looked up)
chain: RGPGRGTSVRRRTSFYLPKDAVKHLHVLSRTRAREVIEALLRKFLVVDDPRKFALFERAERHGQVYLRKLLDDEQPLRLRLLAGPSDKALSFVLK
notes: RASSF1 RA domain, aa 194-288 of Q9NS23
B5: RASSF10 RA domain, MBP fusion protein (domain or fragment, human, UniProt A6NK89 4-133, looked up)
chain: SEKKISVWICQEEKLVSGLSRRTTCSDVVRVLLEDGCRRRRRQRRSRRLGSAGDPHGPGELPEPPNEDDEDDDEALPQGMLCGPPQCYCIVEKWRGFERILPNKTRILRLWAAWGEEQENVRFVLVRSEA
notes: RASSF10 RA domain, aa 4-133 of A6NK89
B6: RASSF4 RA domain, MBP fusion protein (domain or fragment, human, UniProt Q9H2L5 174-262, looked up)
chain: YNHKTSVFTPAYGSVTNVRVNSTMTTLQVLTLLLNKFRVEDGPSEFALYIVHESGERTKLKDCEYPLISRILHGPCEKIARIFLMEADL
notes: RASSF4 RA domain, aa 174-262 of Q9H2L5
B7: RASSF6 RA domain, MBP fusion protein (domain or fragment, human, UniProt Q6ZTQ3 218-306, looked up)
chain: YNHETSIFIPAFESETKVRVNSNMRTEEVIKQLLQKFKIENSPQDFALHIIFATGEQRRLKKTDIPLLQRLLQGPSEKNARIFLMDKDA
notes: RASSF6 RA domain, aa 218-306 of Q6ZTQ3
B8: RASSF2 RA domain, MBP fusion protein (domain or fragment, human, UniProt P50749 176-264, looked up)
chain: YNHKTSVFTPAYGSVTNVRINSTMTTPQVLKLLLNKFKIENSAEEFALYVVHTSGEKQKLKATDYPLIARILQGPCEQISKVFLMEKDQ
notes: RASSF2 RA domain, aa 176-264 of P50749
B9: RASSF7 RA domain, MBP fusion protein (domain or fragment, human, UniProt Q02833 6-89, looked up)
chain: B1 chain
notes: RASSF7 RA domain, aa 6-89 of Q02833
B10: RASSF3 RA domain, MBP fusion protein (domain or fragment, human, UniProt Q86WH2 79-187, looked up)
chain: YTGFIKVQMELCKPPQTSPNSGKLSPSSNGCMNTLHISSTNTVGEVIEALLKKFLVTESPAKFALYKRCHREDQVYACKLSDREHPLYLRLVAGPRTDTLSFVLREHEI
notes: RASSF3 RA domain, aa 79-187 of Q86WH2
B11: RASSF5 RA domain, MBP fusion protein (domain or fragment, UniProt Q5EBH1 200-358, looked up)
chain: PPTIQEIKQKIDSYNSREKHCLGMKLSEDGTYTGFIKVHLKLRRPVTVPAGIRPQSIYDAIKEVNPAATTDKRTSFYLPLDAIKQLHISSTTTVSEVIQGLLKKFMVVDNPQKFALFKRIHKDGQVLFQKLSIADYPLYLRLLAGPDTDVLSFVLKENE
notes: RASSF5 RA domain, aa 200-358 of Q5EBH1 as the methods print it; also called NORE1; RAPL
B12: RASSF9 RA domain, MBP fusion protein (domain or fragment, human, UniProt O75901 25-119, looked up)
chain: B2 chain
notes: RASSF9 RA domain, aa 25-119 of O75901
B13: RAP1B, mGppNHp-bound (natural protein, human, UniProt P61224 1-184, looked up)
chain: MREYKLVVLGSGGVGKSALTVQFVQGIFVEKYDPTIEDSYRKQVEVDAQQCMLEILDTAGTEQFTAMRDLYMKNGQGFALVYSITAQSTFNDLQDLREQILRVKDTDDVPMILVGNKCDLEDERVVGKEQGQNLARQWNNCAFLESSAKSKINVNEIFYDLVRQINRKTPVPGKARKKSSCQLL
notes: human RAP1B; Loaded with mGppNHp

For the first experiment, the target named is T4, RIT1•mGppNHp (human, UniProt Q92963 1-219).
T4 construct: human RIT1; Loaded with mGppNHp
T4 sequence (Q92963 whole entry): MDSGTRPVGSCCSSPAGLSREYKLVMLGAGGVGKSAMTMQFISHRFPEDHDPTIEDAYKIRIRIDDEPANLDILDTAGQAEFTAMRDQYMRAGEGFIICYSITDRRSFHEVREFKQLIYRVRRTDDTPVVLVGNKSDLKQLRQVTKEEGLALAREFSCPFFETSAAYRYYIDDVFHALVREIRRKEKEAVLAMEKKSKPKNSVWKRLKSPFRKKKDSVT
As to the kind of experiment: fluorescence polarisation; increasing concentrations of RA/RB domains as MBP fusions (0.002–300 μM) added to mGppNHp-bound RAS proteins (1 μM); 30 mM Tris-HCl pH 7.4, 100 mM NaCl, 5 mM MgCl2, 3 mM DTT; quadratic ligand-binding equation. The settings on record: both partners purified. Background: Polarisation of emitted light reports the rotation of a fluorescent probe.
In general, Kd refers to the free concentration of one partner at which half of the binding sites on the other are occupied at equilibrium, for simple one-to-one binding. High values mean weaker binding, low ones tighter binding. B1 returned a Kd of 34 µM.

B2 came in with a Kd of 27 µM.

The target of the next experiment is T5, RIT1, mGppNHp-bound (human, UniProt Q92963 1-219).
T5 construct: human RIT1; Loaded with mGppNHp
T5 sequence (Q92963 whole entry): as above
As to the kind of experiment: fluorescence polarisation; increasing concentrations of the RA/RB domain as MBP fusion protein (0.002-300 µM; or MBP alone) titrated to mGppNHp-bound RAS protein (1 µM); 30 mM Tris-HCl pH 7.4, 100 mM NaCl, 5 mM MgCl2, 3 mM DTT; Kd from a quadratic ligand-binding equation. The settings on record: both partners purified.
In turn, B3 came in with a Kd of 76 µM.

B4 registered a Kd of 136 µM.

In turn, B5 returned a Kd of 55 µM.

In the case of B6, the dissociation constant (Kd) was 58 µM. The Kd values of the last two molecules are within 1.5-fold of each other.

B7 registered a Kd of 98 µM.

The next experiment addresses T6, HRAS, mGppNHp-bound (human, UniProt P01112-1 1-189).
T6 construct: human HRAS; Loaded with mGppNHp, a fluorescent non-hydrolysable GTP analogue; That the RAS proteins were the pGEX (GST) constructs is surmised; also called HRAS1; p21HRAS
Described as above. As to conditions: both partners purified.
The molecule B7 gave a Kd of 91 µM.

A further experiment concerns the target T1, RAP2A, mGppNHp-bound. Described as above. The settings on record: both partners purified.
As for B3, binding was characterised by a dissociation constant (Kd) of 67 µM.

Take B4: the Kd was 22 µM.

B8: binding was characterised by a dissociation constant (Kd) of 47 µM. This Kd lies about 2.1-fold higher than the previous one.

Turning to B5, binding was characterised by a dissociation constant (Kd) of 67 µM. This Kd and that of the molecule before are within 1.5-fold of each other.

In turn, B9 displayed a Kd of 68 µM.

In turn, B6 yielded a Kd of 88 µM. This Kd and that of the molecule before are within 1.5-fold of each other.

B7 gave a Kd of 53 µM.

B10 registered a Kd of 100 µM.

B11 returned a Kd of 2 µM. This Kd lies about 50-fold lower than the previous one.

Turning to B12, the Kd turned out to be 66 µM.

For another experiment, the target named is T7, CRAF RB domain, MBP fusion protein (human, UniProt P04049 51-131).
T7 construct: source: E. coli (pMal-c5X-His vector), purified as MBP fusion protein
The description is as above. As to conditions: both partners purified.
B13 displayed a dissociation constant Kd of 30 µM.

The next experiment concerns the target T2, RALA, mGppNHp-bound. Described as above. As to conditions: both partners purified.
In turn, B3 showed a Kd of 115 µM.

In turn, B4 registered a dissociation constant Kd of 18 µM. This Kd lies about 6.4-fold lower than the previous one.

The molecule B8 displayed a Kd of 167 µM.

In turn, B9 showed a Kd of 101 µM. This Kd lies about 1.7-fold lower than the previous one.

On to B6, for which the Kd was 191 µM. Against the preceding molecule, the Kd is about 1.9-fold higher.

In the case of B11, the Kd was 49 µM. Against the preceding molecule, the Kd is about 3.9-fold lower.

In the next experiment the target is T8, RHEB1, mGppNHp-bound (human, UniProt Q15382 1-184).
T8 construct: human RHEB1; Loaded with mGppNHp; the discussion speaks of the RHEB G domain
T8 sequence (Q15382 whole entry): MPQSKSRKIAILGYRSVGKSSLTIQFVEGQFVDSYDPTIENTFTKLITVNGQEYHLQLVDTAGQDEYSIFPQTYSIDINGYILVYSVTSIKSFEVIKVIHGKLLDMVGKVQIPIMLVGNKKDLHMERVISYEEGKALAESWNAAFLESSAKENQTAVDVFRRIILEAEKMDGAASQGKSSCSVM
The description is as above. As to conditions: both partners purified.
Take B3: the Kd was 102 µM.

B4 displayed a Kd of 37 µM.

With B8, the affinity, expressed as Kd, was 44 µM.

Molecule B5 gave a Kd of 150 µM.

B9 registered a Kd of 76 µM.

In turn, B6 gave an equilibrium dissociation constant (Kd) of 47 µM. This Kd lies about 1.6-fold lower than the previous one.

Molecule B7 gave a Kd of 56 µM.

Molecule B10 returned a dissociation constant Kd of 64 µM.

Take B11: the Kd came out at 46 µM.

B12 had a Kd of 143 µM.

Another experiment addresses T3, RRAS1, mGppNHp-bound. The experiment is described as above. As to conditions: both partners purified.
On to B3, for which the Kd stood at 114 µM.

Molecule B4 gave a Kd of 33 µM.

Molecule B8 returned a Kd of 122 µM.

In turn, B5 came in with a dissociation constant Kd of 99 µM. This Kd and that of the molecule before are within 1.5-fold of each other.

For B9, the Kd was 30 µM.

Molecule B7 had a Kd of 112 µM.

The molecule B10 gave a Kd of 435 µM.

In turn, B11 showed a Kd of 56 µM.

The target in the next experiment is B13. Described as above. As to conditions: both partners purified.
B3 displayed a Kd of 66 µM.

B4 had a Kd of 26 µM.

B8 showed a dissociation constant (Kd) of 67 µM. Against the preceding molecule, the Kd is about 2.6-fold higher.

For B5, binding was characterised by a dissociation constant (Kd) of 73 µM.

In turn, B9 gave an equilibrium dissociation constant (Kd) of 72 µM.

In turn, B6 registered a Kd of 101 µM. This Kd and that of the molecule before are within 1.5-fold of each other.

B7 came in with a Kd of 65 µM. Compared with the last molecule, the Kd is about 1.6-fold lower.

In turn, B10 came in with a Kd of 116 µM.

B11 registered a Kd of 4 µM.

Turning to B12, the Kd was 74 µM.
